Experimental data: US20190234935A1

Biological target: mouse GFRAL (endogenous, wild type mice against Gfral-/- mice) (mouse) (UniProt Q6SJE0)
Experiment: cell-based or functional assay

Chain of mouse GFRAL (endogenous, wild type mice against Gfral-/- mice) (mouse) (Q6SJE0 20-393): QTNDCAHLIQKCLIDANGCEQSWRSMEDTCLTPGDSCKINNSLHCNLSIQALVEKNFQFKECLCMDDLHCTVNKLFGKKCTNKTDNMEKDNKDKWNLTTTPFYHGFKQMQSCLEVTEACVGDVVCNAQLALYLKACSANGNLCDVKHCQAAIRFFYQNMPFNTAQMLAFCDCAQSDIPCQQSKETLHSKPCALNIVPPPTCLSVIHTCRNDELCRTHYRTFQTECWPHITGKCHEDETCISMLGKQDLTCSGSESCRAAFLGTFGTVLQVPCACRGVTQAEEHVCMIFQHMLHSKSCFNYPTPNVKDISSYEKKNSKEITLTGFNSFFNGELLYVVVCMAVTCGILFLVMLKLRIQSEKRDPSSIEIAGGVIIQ

- decrease in 12-hour food intake after a single subcutaneous administration of 16 nmol/kg: > 40%
Substance: recombinant human GDF15 (generated by Janssen BioTherapeutics) (from UniProt Q99988 197-308) (ligand)
